These results are taken from patent publication US20250161537A1, “IN-SITU INJECTABLE HYDROGEL ROD USING CROSSLINKED HYDROGEL, METHOD FOR MANUFACTURING SAME, AND BIOMEDICAL USE THEREOF” (AJOU UNIVERSITY INDUSTRY-ACADEMIC COOPERATION FOUNDATION, priority 2022, published 2025).

The nature of series [1]: Intraocular pharmacokinetic evaluation after intravitreal injection (ELISA of vitreous, retina, aqueous humor). The series is classed as in vivo, New Zealand White (NZW) rabbit. As for the experimental part: Bevacizumab drug control, hydrogel (in situ forming hydrogel) in Comparative Example, and hydrogel rod in Example were injected. The rabbits were sacrificed on days 1, 4, 8, 14, 30, 60, 90, and 120. In order to maintain its drug efficacy, the concentration of drug must be maintained from vitreous humor to retina, while the drug may be eliminated to the anterior chamber site. For evaluation, pharmacokinetic analysis of vitreous, retina, and aqueous humor tissues was conducted through ELISA after animal sacrifice and ocular separation by date.
After animal sacrifice and ocular separation by date, pharmacokinetic analysis of vitreous, retina, and aqueous tissues was performed via ELISA. […] The hydrogel rod of Example is a pre-crosslinking matrix, and, after the initial burst release is inhibited by 7 times compared to the control and 3 times compared to the hydrogel of Comparative Example, the drug was continuously released within a certain range and the drug concentration of about 32 µg/mL was maintained on 120 day, satisfying a level above […] which is the drug efficacy threshold of bevacizumab.
A general note: ELISA stands for enzyme-linked immunosorbent assay.

Series [2] deals with human umbilical vein endothelial cells (HUVECs). The series can be described thus: WST-1 assay, growth inhibition of HUVEC by released drug. It is filed as cell-based. To be noted: released drug samples diluted 1:1 in culture medium; fresh bevacizumab 1, 10, 100 µg/mL. On the procedure:
The long-term efficacy and biological stability of drugs released were evaluated through culture of human umbilical vein endothelial cells (HUVECs), which are cells that are involved in angiogenesis. After culturing HUVECs, they were prepared in 2×10^4 cells/well in a 48-well plate and treated with the long-term released bevacizumab drug samples diluted in 1:1 ratio in a cell culture medium (EBM media containing EGM supplements and 1% P/S) and fresh bevacizumab drug samples by concentration so as to observe cell growth inhibition and safety. For the control of fresh bevacizumab drug samples by concentration, preparation was performed at final concentrations of 1, 10, and 100 µg/mL, diluted in cell culture media.

As for bevacizumab, the “initial excess elimination maintained until” value in series [1] (aqueous humor (drainway)) is 30 days. The elimination curve entry in series [1] (retina) and in series [1] (vitreous) was “fastest elimination curve” in each case. Moreover, in series [2], the “inhibition of HUVEC cell growth (WST-1)” value is given as “inhibition of cell growth in proportion to the concentration of the drug”.
